Test results: paper PMC10912509

Target: ITPKB (UniProt P27987)
Assay: co-immunoprecipitation, immunoblot
Settings: reference: wild-type Trim25; sites S100

**Q.** For “Trim25 (from UniProt Q14258) Trim25 S100A”, which “binding against the reference” value is on record?
**A.** weaker
